Tests used:
[1] = molecular target: T1, GLO3 (Oryza sativa, UniProt Q7FAS1); test: peroxidase-coupled H2O2 assay, […] nm; slope replot of Lineweaver-Burk; assay type: biochemical
T1 construct: complete ORF, N-terminal 6xHis tag kept, expressed in Saccharomyces cerevisiae INVSc1, Ni-IDA purified, subunit about 40 kDa
T1 sequence (Q7FAS1 1-367): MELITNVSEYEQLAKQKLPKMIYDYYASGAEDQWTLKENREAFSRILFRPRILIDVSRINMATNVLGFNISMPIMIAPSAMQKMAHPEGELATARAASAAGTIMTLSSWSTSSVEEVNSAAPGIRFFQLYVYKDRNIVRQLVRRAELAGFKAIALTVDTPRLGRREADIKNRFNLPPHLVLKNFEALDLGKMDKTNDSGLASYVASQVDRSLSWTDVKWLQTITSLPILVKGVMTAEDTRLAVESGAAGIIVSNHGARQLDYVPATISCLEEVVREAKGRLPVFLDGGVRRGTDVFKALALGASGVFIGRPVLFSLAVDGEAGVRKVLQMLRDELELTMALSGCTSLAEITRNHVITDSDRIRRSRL

[2] = molecular target: T2, GLO1 + 4 (Oryza sativa, UniProt Q10CE4+Q6YT73); test: as above; assay type: biochemical
T2 construct: co-expressed N-terminally 6xHis-tagged GLO1 (pYES3) and GLO4 (pYES2) in Saccharomyces cerevisiae, Ni-IDA purified; GLO4/GLO5 names may be swapped in databases
T2 sequence (Q10CE4 1-369): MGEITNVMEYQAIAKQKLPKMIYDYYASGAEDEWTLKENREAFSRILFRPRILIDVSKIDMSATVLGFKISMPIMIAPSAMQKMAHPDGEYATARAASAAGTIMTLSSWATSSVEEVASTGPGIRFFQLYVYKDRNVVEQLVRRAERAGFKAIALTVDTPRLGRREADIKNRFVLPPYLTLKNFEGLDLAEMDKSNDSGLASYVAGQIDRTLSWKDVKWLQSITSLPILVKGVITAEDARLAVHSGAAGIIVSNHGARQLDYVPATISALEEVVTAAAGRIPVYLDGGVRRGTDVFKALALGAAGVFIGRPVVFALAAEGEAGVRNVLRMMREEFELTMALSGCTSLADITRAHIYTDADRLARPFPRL
T2 sequence (Q6YT73 1-369): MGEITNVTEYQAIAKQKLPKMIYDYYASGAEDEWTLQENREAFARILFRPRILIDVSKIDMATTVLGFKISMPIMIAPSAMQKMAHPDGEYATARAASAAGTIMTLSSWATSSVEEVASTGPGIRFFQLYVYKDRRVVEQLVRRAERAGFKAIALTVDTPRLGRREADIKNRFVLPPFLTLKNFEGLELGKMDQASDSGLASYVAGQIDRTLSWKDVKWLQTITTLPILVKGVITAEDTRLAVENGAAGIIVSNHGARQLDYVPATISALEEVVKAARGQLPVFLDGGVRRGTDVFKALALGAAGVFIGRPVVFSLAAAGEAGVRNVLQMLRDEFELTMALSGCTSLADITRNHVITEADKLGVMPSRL

[3] = molecular target: T3, GLO4 (Oryza sativa, UniProt Q6YT73); test: as above; assay type: biochemical
T3 construct: gene GLO5; complete ORF, N-terminal 6xHis tag kept, expressed in Saccharomyces cerevisiae INVSc1, Ni-IDA purified, subunit about 40 kDa, homo-oligomer; GLO4/GLO5 names may be swapped in databases, go by printed locus
T3 sequence (Q6YT73 1-369): T2 sequence (Q6YT73 1-369)

[4] = molecular target: T4, GLO1 (Oryza sativa, UniProt Q10CE4); test: as above; assay type: biochemical
T4 construct: complete ORF, N-terminal 6xHis tag kept, expressed in Saccharomyces cerevisiae INVSc1, Ni-IDA purified, subunit about 40 kDa, homo-oligomer
T4 sequence (Q10CE4 1-369): T2 sequence (Q10CE4 1-369)

[5] = substrate: O=C(O)[C@H](O)CO; test: purified protein; assay type: biochemical, Oryza sativa; details: pH 7.8, 30 °C, 0.1 mM FMN
[6] = substrate: O=CC(=O)O; test: purified protein; assay type: biochemical, Oryza sativa; details: pH 7.8, 30 °C, 0.1 mM FMN
[7] = substrate: C[C@H](O)C(=O)O; test: purified protein; details: pH 7.8, 30 °C, 0.1 mM FMN
[8] = substrate: O=C(O)CO; test: purified protein; details: pH 7.8, 30 °C, 0.1 mM FMN

Work on `O=C(O)C(=O)O` [oxalate] yielded a Ki [1] of 5.6 ± 1.23 mM, a Ki [2] of 5.49 ± 1.04 mM and a Ki [3] of 6.34 ± 1.74 mM. It also gave a Ki [4] of 4.57 ± 0.93 mM.

B1: GLO1 (Oryza sativa Japonica Group) (protein)
chain: T2 sequence (Q10CE4 1-369)
notes: complete ORF, N-terminal 6xHis tag kept, expressed in Saccharomyces cerevisiae INVSc1, Ni-IDA purified, subunit about 40 kDa, homo-oligomer
B1 gave a Km [5] of 4.976 ± 0.305 mM, a Km [6] of 6.505 ± 0.412 mM and a Km [7] of 5.128 ± 0.315 mM. The Km [8] was 0.499 ± 0.041 mM.

B2: GLO1 + 4 (Oryza sativa Japonica Group) (protein)
chain 1: T2 sequence (Q10CE4 1-369)
chain 2: T2 sequence (Q6YT73 1-369)
notes: co-expressed N-terminally 6xHis-tagged GLO1 (pYES3) and GLO4 (pYES2) in Saccharomyces cerevisiae, Ni-IDA purified; GLO4/GLO5 names may be swapped in databases
With B2 the Km [5] was 4.511 ± 0.307 mM, the Km [6] was 4.883 ± 0.321 mM and the Km [7] was 5.227 ± 0.448 mM. For the same molecule, the Km [8] was 0.423 ± 0.038 mM.

B3: GLO3 (Oryza sativa Japonica Group) (protein)
chain: T1 sequence (Q7FAS1 1-367)
notes: complete ORF, N-terminal 6xHis tag kept, expressed in Saccharomyces cerevisiae INVSc1, Ni-IDA purified, subunit about 40 kDa
For B3, the Km [5] was 2.762 ± 0.311 mM, the Km [6] was 1.799 ± 0.084 mM and the Km [7] was 1.104 ± 0.056 mM. For the same molecule, the Km [8] was 0.470 ± 0.035 mM.

B4: GLO4 (Oryza sativa Japonica Group) (protein)
chain: T2 sequence (Q6YT73 1-369)
notes: complete ORF, N-terminal 6xHis tag kept, expressed in Saccharomyces cerevisiae INVSc1, Ni-IDA purified, subunit about 40 kDa, homo-oligomer; GLO4/GLO5 names may be swapped in databases, go by printed locus
For B4, the Km [5] was 4.367 ± 0.395 mM, the Km [6] was 5.983 ± 0.333 mM and the Km [7] was 4.720 ± 0.291 mM. For the same molecule, the Km [8] was 0.613 ± 0.050 mM.

Source: article PMC5549332 (BMC Plant Biology, 2017)
